# How the values were obtained:
# FcγRI = FcγRI (Homo sapiens, UniProt P12314); experiment: Binding kinetics to FcγRI by Biolayer Interferometry; conditions: BLI, 25° C.
# Method: (§1) The binding kinetics of the XMT-1535, Conjugate 7, and Conjugate 11 to Fc receptors (FcRn, FcγRI, FcγRIIA (H167), and FcγRIIIA (V176) were determined by Biolayer Interferometry (BLI; ForteBio Octet QKe) at 25° C. To test binding to Fcγ receptors, XMT-1535, Conjugate 7, and Conjugate 11 were diluted to 1 μg/mL in kinetics buffer (1×) and captured on anti-human Fab-CH1 (FAB2G) biosensors for 10 minutes. All dilutions and baseline measurements were done in kinetics buffer (1×). Baseline measurements were performed at […] before and after each capture step. Association measurements to the various Fc receptors were performed at 7 concentrations (from 1 μM to 100 nM, 2-fold serial dilutions) for 5 minutes. Dissociation was performed for 15 minutes. Binding constants were calculated with the global fit averages of the traces using a 1:1 model. Binding constants for XMT-1535, Conjugate 7, and Conjugate 11 to Fc receptors were determined using standard Octet procedures (ForteBio). Kinetic parameters were calculated using Octet software (ForteBio).
# (§2) Tables IV-VII summarize the Kd (equilibrium dissociation constant), kon (rate of association), and koff (rate of dissociation) for human FcRn (Table IV), FcγRI (Table V), FcγRIIA H167 (Table VI), and FcγRIIIA […] (Table VII) for each test article.
# NaPi2b-derived peptide = target: T1, NaPi2b-derived peptide (Homo sapiens, UniProt O95436); experiment: Binding kinetics to NaPi2b-derived peptide by Biolayer Interferometry; conditions: BLI, 25° C.
# T1 construct: Genscript); purchased Genscript
# T1 sequence (O95436 311-340 limits assumed): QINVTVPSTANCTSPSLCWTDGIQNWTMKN
# Method: The binding kinetics of XMT-1535, Conjugate 7, and Conjugate 11 to immobilized NaPi2b-derived peptide antigen were determined by Biolayer Interferometry (BLI; Octet; ForteBio). Binding constants for XMT-1535, Conjugate 7, and Conjugate 11 were determined using standard Octet procedures (ForteBio). Biotinylated NaPi2b-derived peptide ([…]-biotin; Genscript) was immobilized to streptavidin octet sensors in kinetics buffer (10×). Sensors were then blocked in kinetics buffer (10×) with biocytin (50 μg/mL). Increasing concentrations of XMT-1535, Conjugate 7, or Conjugate 11 were then associated with immobilized peptide in kinetics buffer (10×).
# FcγRIIIA (V176) = experiment: Binding kinetics to FcγRIIIA by Biolayer Interferometry; set-up: species or system human; conditions: BLI, 25° C.
# Method: as §1, §2
# human FcRn = target: T2, human FcRn (Homo sapiens, UniProt P55899); experiment: Binding kinetics to FcRn by Biolayer Interferometry; conditions: BLI, 25° C., pH 6.0
# T2 construct: purchased Immunitrack
# T2 sequence (P55899 24-297 limits assumed): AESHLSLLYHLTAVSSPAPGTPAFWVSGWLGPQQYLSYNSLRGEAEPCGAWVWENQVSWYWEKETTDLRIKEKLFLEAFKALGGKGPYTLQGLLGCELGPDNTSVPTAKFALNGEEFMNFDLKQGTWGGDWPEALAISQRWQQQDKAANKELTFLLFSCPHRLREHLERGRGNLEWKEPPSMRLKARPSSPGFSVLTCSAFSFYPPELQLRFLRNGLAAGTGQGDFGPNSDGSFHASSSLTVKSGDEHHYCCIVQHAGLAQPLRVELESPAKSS
# T2 sequence (P61769 21-119 partner): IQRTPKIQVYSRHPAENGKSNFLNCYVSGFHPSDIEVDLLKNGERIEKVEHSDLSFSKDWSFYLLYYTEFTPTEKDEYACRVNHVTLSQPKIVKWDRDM
# Method: as §1
# To test binding to FcRn receptor, association of XMT-1535, Conjugate 7, and Conjugate 11 to Fab-CH1 (FAB2G) biosensors was performed as described above. […] Association measurements to FcRn protein (Immunitrack) was measured at 7 concentrations (from 1 μM to 100 nM, 2-fold serial dilutions) for 5 minutes. […]
# FcγRIIA (H167) = target: T3, FcγRIIA (H167) (Homo sapiens, UniProt P12318); experiment: Binding kinetics to FcγRIIA by Biolayer Interferometry; conditions: FcγRIIA H167, BLI, 25° C.
# T3 sequence (P12318 34-217 limits assumed): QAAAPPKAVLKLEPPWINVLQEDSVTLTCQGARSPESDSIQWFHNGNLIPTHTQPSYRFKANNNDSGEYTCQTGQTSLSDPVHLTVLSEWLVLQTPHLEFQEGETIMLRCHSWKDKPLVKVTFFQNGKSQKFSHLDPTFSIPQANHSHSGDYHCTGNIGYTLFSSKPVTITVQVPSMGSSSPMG
# Method: as §1, §2
# Sequence of FcγRI (P12314 16-374): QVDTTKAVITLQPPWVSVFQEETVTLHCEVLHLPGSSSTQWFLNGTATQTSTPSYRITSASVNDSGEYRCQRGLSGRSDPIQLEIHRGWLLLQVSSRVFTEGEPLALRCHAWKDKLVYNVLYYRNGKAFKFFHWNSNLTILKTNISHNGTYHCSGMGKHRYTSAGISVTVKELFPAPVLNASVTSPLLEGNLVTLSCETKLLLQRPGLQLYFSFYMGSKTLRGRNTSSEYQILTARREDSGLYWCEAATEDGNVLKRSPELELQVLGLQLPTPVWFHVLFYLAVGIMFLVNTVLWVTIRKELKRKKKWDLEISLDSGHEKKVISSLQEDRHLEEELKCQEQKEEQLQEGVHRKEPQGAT
substance,measurement,setting,value
XMT-1535: anti-NaPi2b antibody,koff Mean,FcγRI,0.000192 s⁻¹
same,kon Mean,FcγRI,1.28e+06 M⁻¹ s⁻¹
same,"koff, Mean Napi2b binding",NaPi2b-derived peptide,1.27e-05 s⁻¹
same,"kon, Mean Napi2b binding",NaPi2b-derived peptide,170000 M⁻¹ s⁻¹
same,koff Mean,FcγRIIIA (V176),0.146 s⁻¹
same,kon Mean,FcγRIIIA (V176),216000 M⁻¹ s⁻¹
same,koff Mean,human FcRn,0.000448 s⁻¹
same,kon Mean,human FcRn,160000 M⁻¹ s⁻¹
same,koff Mean,FcγRIIA (H167),0.308 s⁻¹
same,kon Mean,FcγRIIA (H167),175000 M⁻¹ s⁻¹

# Source: US11786605B2, “Site specific antibody-drug conjugates with peptide-containing linkers” (Mersana Therapeutics, Inc., priority 2020, dated 2023)
